Measured values published in patent US20110250170A1 (PHILOGEN S P A, published 2011).

Target: T1, A1 domain of tenascin-C (TNC-A1) (UniProt P24821 1073-1163, limits assumed)
T1 construct: domain: A1; Coupled to Sepharose resin in the immunoreactivity test; also called extra-domain A1 of tenascin-C
T1 sequence (looked up): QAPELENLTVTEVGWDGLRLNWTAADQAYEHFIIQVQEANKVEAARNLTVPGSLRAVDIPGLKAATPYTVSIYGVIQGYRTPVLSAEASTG
Test: real-time interaction analysis, BIAcore 3000

koff: < 0.01 s⁻¹
B1: F16 human monoclonal antibody (original clone 4A1-F16) (antibody, V domains shown)
VH: EVQLLESGGGLVQPGGSLRLSCAASGFTFSRYGASWVRQAPGKGLEWVSAISGSGGSTYYADSVKGRFTISRDNSKNTLYLQMNSLRAEDTAVYYCAKAHNAFDYWGQGTLVTVSR
VL: SSELTQDPAVSVALGQTVRITCQGDSLRSYYASWYQQKPGQAPVLVIYGKNNRPSGIPDRFSGSSSGNTASLTITGAQAEDEADYYCNSSVYTMPPVVFGGGTKLTVL
